The record followed here is US20020164721A1, “Design of a polyepitopic construct for the induction of HLA-A2.1 restricted HIV 1 specific CTL responses using HHD mice” (priority 1999, published 2002).

One assay has as its target T1, HLA-A2.1 molecules on T2 (TAP-, HLA-A2.1+) cells (human). Description: T2 cells, decay of surface peptide-HLA-A2.1 complexes, FACS.
Consider YMDGTMSQV (modifications not checked) [Tyrosinase.368-D], for which the DC50 (half-life of peptide-HLA-A2.1 complexes) was more than 6 h.

In turn, YMNGTMSQV (modifications not checked) [Tyrosinase.368-N] displayed a DC50 (half-life of peptide-HLA-A2.1 complexes) of more than 8 h.

For the molecule LLDTGADDTV (modifications not checked) [L10V], the DC50 (half-life of peptide-HLA-A2.1 complexes) is less than 2 h.

Molecule IISAVVGIL (modifications not checked) [Her2/neu.654] came in with a DC50 (half-life of peptide-HLA-A2.1 complexes) of 4 h.

In the case of KLTPLCVSL (modifications not checked) [K9L], the DC50 (half-life of peptide-HLA-A2.1 complexes) is more than 6 h.

In turn, VLPDVFIRC (modifications not checked) [NA17-A.nt38] had a DC50 (half-life of peptide-HLA-A2.1 complexes) of more than 8 h.

In turn, FLWGPRALV (modifications not checked) [MAGE-3.271] displayed a DC50 (half-life of peptide-HLA-A2.1 complexes) of 6 h.

Another assay has as its target T1, HLA-A2.1 molecules on T2 (TAP-, …). Description: T2 cells, HLA-A2.1 stabilisation, BB7.2 immunofluorescence FACS.
Consider LLDGTATLRL (modifications not checked) [gp100.457], for which the relative affinity (RA) (ratio to reference peptide HIV 1 rt.476) was 1.65.

Regarding YMDGTMSQV (modifications not checked) [Tyrosinase.368-D], the relative affinity (RA) (ratio to reference peptide HIV 1 rt.476) turned out to be 2.27.

With YMNGTMSQV (modifications not checked) [Tyrosinase.368-N], the relative affinity (RA) (ratio to reference peptide HIV 1 rt.476) turned out to be 2.2.

Consider ILTVILGVL (modifications not checked) [Melan-A/MART-1.32], for which the relative affinity (RA) (ratio to reference peptide HIV 1 rt.476) stood at 21.1.

Consider RMPEAAPPV (modifications not checked) [p53.65], for which the relative affinity (RA) (ratio to reference peptide HIV 1 rt.476) is 0.91.

For VLYRYGSFSV (modifications not checked) [gp100.476], the relative affinity (RA) (ratio to reference peptide HIV 1 rt.476) amounted to 10.

Regarding MLLAVLYCL (modifications not checked) [Tyrosinase.1], the relative affinity (RA) (ratio to reference peptide HIV 1 rt.476) is more than 60.

Consider VLPDVFIRC (modifications not checked) [NA17-A.nt38], for which the relative affinity (RA) (ratio to reference peptide HIV 1 rt.476) was found to be 1.52.

The next assay shares this target. Description: T2 cells, HLA-A2.1 stabilisation, indirect immunofluorescence FACS.
With LLDTGADDTV (modifications not checked) [L10V], the relative affinity (RA) (ratio to reference peptide I9V) worked out at 10.

In the case of KLTPLCVSL (modifications not checked) [K9L], the relative affinity (RA) (ratio to reference peptide I9V) was 1.35.
